For this experiment, the target named is CHIKV virus-like particles (VLPs, strain 37997) (chikungunya virus (strain 37997)). As to the kind of experiment: SPR. In general terms: SPR reads the build-up and loss of mass on a sensor chip optically.
Sequence of CHIKV virus-like particles (VLPs, strain 37997) (chikungunya virus (strain 37997)) (Q5XXP3 326-748 limits assumed, chain 1 of 2): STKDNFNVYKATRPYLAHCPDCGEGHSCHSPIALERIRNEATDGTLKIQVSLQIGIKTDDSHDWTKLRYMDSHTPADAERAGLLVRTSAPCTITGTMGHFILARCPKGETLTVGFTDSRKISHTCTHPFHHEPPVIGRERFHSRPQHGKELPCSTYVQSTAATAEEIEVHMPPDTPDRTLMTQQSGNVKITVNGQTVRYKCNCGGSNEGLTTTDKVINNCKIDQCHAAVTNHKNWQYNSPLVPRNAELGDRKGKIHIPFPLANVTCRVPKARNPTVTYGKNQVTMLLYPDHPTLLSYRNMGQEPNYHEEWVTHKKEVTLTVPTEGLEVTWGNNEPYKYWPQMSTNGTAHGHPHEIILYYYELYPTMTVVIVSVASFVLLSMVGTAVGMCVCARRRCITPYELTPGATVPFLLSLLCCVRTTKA
Sequence of CHIKV virus-like particles (VLPs, strain 37997) (chikungunya virus (strain 37997)) (Q5XXP3 810-1248 limits assumed, chain 2 of 2): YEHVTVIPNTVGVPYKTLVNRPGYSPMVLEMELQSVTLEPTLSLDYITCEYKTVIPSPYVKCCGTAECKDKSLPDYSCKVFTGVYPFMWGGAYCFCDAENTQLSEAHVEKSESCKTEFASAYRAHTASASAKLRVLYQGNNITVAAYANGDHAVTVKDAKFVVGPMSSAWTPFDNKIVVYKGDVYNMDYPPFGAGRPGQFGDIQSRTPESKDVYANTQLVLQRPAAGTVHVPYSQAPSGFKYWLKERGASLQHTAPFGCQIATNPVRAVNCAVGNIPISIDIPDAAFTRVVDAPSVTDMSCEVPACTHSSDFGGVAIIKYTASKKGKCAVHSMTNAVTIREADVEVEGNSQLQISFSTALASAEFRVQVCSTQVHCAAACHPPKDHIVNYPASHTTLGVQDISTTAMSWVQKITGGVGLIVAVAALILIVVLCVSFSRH

With “Mxra8 cleaved from the IgG backbone (recombinant Mxra8 from Mxra8-HRV-Fc) (from UniProt Q9DBV4 22-336) (domain or fragment)”, the Kd – broadly, the constant that tells how readily two partners part at equilibrium – is 200 nM.

The values are drawn from paper PMC5970976.
